Results reported in doi:10.1101/676627 (bioRxiv, 2019).

Legend:
crystal structure = target: the molecule itself; test: crystal structure
SEC-MALS = target: the molecule itself; test: SEC-MALS

Row | Protein | stoichiometry N (crystal structure) | stoichiometry N (SEC-MALS)
1 | ROCext surface engineered mutant (KA), K1460A and K1463A (domain or fragment, human, UniProt Q5S007 1329-1520, looked up) AVPYNRMKLMIVGNTGSGKTTLLQQLMKTKKSDLGMQSATVGIDVKDWPIQIRDKRKRDLVLNVWDFAGREEFYSTHPHFMTQRALYLAVYDLSKGQAEVDAMKPWLFNIKARASSSPVILVGTHLDVSDEAQRAACMSKITKELLNKRGFPAIRDYHFVNATEESDALAKLRKTIINESLNFKIRDQLVVG | 2 | –
2 | ROCext, wild-type GTPase (ROC) domain of human LRRK2, residues 1329-1520 (domain or fragment, UniProt Q5S007 1329-1520, looked up) AVPYNRMKLMIVGNTGSGKTTLLQQLMKTKKSDLGMQSATVGIDVKDWPIQIRDKRKRDLVLNVWDFAGREEFYSTHPHFMTQRALYLAVYDLSKGQAEVDAMKPWLFNIKARASSSPVILVGTHLDVSDEKQRKACMSKITKELLNKRGFPAIRDYHFVNATEESDALAKLRKTIINESLNFKIRDQLVVG | – | 2
